This is an account of results in patent publication US7485456 (YEDA RESEARCH AND DEVELOPMENT, dated 2009).

Sequences and labels used below:
B1: intracellular domain of the p55 TNF receptor (receptor, UniProt P19438 235-455, looked up)
chain: RYQRWKSKLYSIVCGKSTPEKEGELEGTTTKPLAPNPSFSPTPGFTPTLGFSPVPSSTFTSSSTYTPGDCPNFAAPRREVAPPYQGADPILATALASDPIPNPLQKWEDSAHKPQSLDTDDPATLYAVVENVPPLRWKEFVRRLGLSDHEIDRLELQNGRCLREAQYSMLATWRRRTPRREATLELLGRVLRDMDLLGCLEDIEEALCGPAALPPAPSLLR
notes: domain: intracellular domain; Two-hybrid construct; also called p55-IC
B2: MORT1 (other, UniProt Q13158 1-208, looked up)
chain: MDPFLVLLHSVSSSLSSSELTELKFLCLGRVGKRKLERVQSGLDLFSMLLEQNDLEPGHTELLRELLASLRRHDLLRRVDDFEAGAAAGAAPGEEDLCAAFNVICDNVGKDWRRLARQLKVSDTKIDSIEDRYPRNLTERVRESLRIWKNTEKENATVAHLVGALRSCQMNLVADLVQEVQQARDLQNRSGAMSPMSWNSDASTSEAS
notes: Two-hybrid construct; also called FADD; MORT1/FADD
B3: RIP (other, UniProt Q13546 1-671, looked up)
chain: MQPDMSLNVIKMKSSDFLESAELDSGGFGKVSLCFHRTQGLMIMKTVYKGPNCIEHNEALLEEAKMMNRLRHSRVVKLLGVIIEEGKYSLVMEYMEKGNLMHVLKAEMSTPLSVKGRIILEIIEGMCYLHGKGVIHKDLKPENILVDNDFHIKIADLGLASFKMWSKLNNEEHNELREVDGTAKKNGGTLYYMAPEHLNDVNAKPTEKSDVYSFAVVLWAIFANKEPYENAICEQQLIMCIKSGNRPDVDDITEYCPREIISLMKLCWEANPEARPTFPGIEEKFRPFYLSQLEESVEEDVKSLKKEYSNENAVVKRMQSLQLDCVAVPSSRSNSATEQPGSLHSSQGLGMGPVEESWFAPSLEHPQEENEPSLQSKLQDEANYHLYGSRMDRQTKQQPRQNVAYNREEERRRRVSHDPFAQQRPYENFQNTEGKGTAYSSAASHGNAVHQPSGLTSQPQVLYQNNGLYSSHGFGTRPLDPGTAGPRVWYRPIPSHMPSLHNIPVPETNYLGNTPTMPFSSLPPTDESIKYTIYNSTGIQIGAYNYMEIGGTSSSLLDSTNTNFKEEPAAKYQAIFDNTTSLTDKHLDPIRENLGKHWKNCARKLGFTQSQIDEIDHDYERDGLKEKVYQMLQKWVMREGIKGATVGKLAQALHQCSRIDLLSSLIYVSQN
notes: Two-hybrid construct
B4: intracellular domain of the FAS/APO1 (CD95 receptor) (receptor, UniProt P25445 191-335, looked up)
chain: KRKEVQKTCRKHRKENQGSHESPTLNPETVAINLSDVDLSKYITTIAGVMTLSQVKGFVRKNGVNEAKIDEIKNDNVQDTAEQKVQLLRNWHQLHGKKEAYDTLIKDLKKANLCTLAEKIQTIILKDITSDSENSNFRNEIQSLV
notes: domain: intracellular domain; Two-hybrid construct
B5: TRAF3 (other, UniProt Q13114 1-568, looked up)
chain: MESSKKMDSPGALQTNPPLKLHTDRSAGTPVFVPEQGGYKEKFVKTVEDKYKCEKCHLVLCSPKQTECGHRFCESCMAALLSSSSPKCTACQESIVKDKVFKDNCCKREILALQIYCRNESRGCAEQLMLGHLLVHLKNDCHFEELPCVRPDCKEKVLRKDLRDHVEKACKYREATCSHCKSQVPMIALQKHEDTDCPCVVVSCPHKCSVQTLLRSELSAHLSECVNAPSTCSFKRYGCVFQGTNQQIKAHEASSAVQHVNLLKEWSNSLEKKVSLLQNESVEKNKSIQSLHNQICSFEIEIERQKEMLRNNESKILHLQRVIDSQAEKLKELDKEIRPFRQNWEEADSMKSSVESLQNRVTELESVDKSAGQVARNTGLLESQLSRHDQMLSVHDIRLADMDLRFQVLETASYNGVLIWKIRDYKRRKQEAVMGKTLSLYSQPFYTGYFGYKMCARVYLNGDGMGKGTHLSLFFVIMRGEYDALLPWPFKQKVTLMLMDQGSSRRHLGDAFKPDPNSSSFKKPTGEMNIASGCPVFVAQTVLENGTYIKDDTIFIKVIVDTSDLPDP
notes: Two-hybrid construct
B6: TRADD (other, UniProt Q15628 1-312, looked up)
chain: MAAGQNGHEEWVGSAYLFVESSLDKVVLSDAYAHPQQKVAVYRALQAALAESGGSPDVLQMLKIHRSDPQLIVQLRFCGRQPCGRFLRAYREGALRAALQRSLAAALAQHSVPLQLELRAGAERLDALLADEERCLSCILAQQPDRLRDEELAELEDALRNLKCGSGARGGDGEVASAPLQPPVPSLSEVKPPPPPPPAQTFLFQGQPVVNRPLSLKDQQTFARSVGLKWRKVGRSLQRGCRALRDPALDSLAYEYEREGLYEQAFQLLRRFVQAEGRRATLQRLVEALEENELTSLAEDLLGLTDPNGGLA
notes: Two-hybrid construct
B7: intracellular domain of the p75 TNF receptor (receptor, UniProt P20333 288-461, looked up)
chain: KKKPLCLQREAKVPHLPADKARGTQGPEQQHLLITAPSSSSSSLESSASALDRRAPTRNQPQAPGVEASGAGEARASTGSSDSSPGGHGTQVNVTCIVNVCSSSDHSSQCSSQASSTMGDTDSSPSESPKDEQVPFSKEECAFRSQLETPETLLGSTEEKPLPLGVPDAGMKPS
notes: domain: intracellular domain; Two-hybrid construct; also called p75-IC
B8: intracellular domain of the CD40 receptor (receptor, UniProt P25942 216-277, looked up)
chain: KKVAKKPTNKAPHPKQEPQEINFPDDLPGSNTAAPVQETLHGCQPVTQEDGKESRISVQERQ
notes: as for B4
B9: construct of the N-terminal part of the TRAF2 molecule, amino-acids 1 to 221 (two-hybrid bait) (other)
chain: MAAASVTPPGSLELLQPGFSKTLLGTKLEAKYLCSACRNVLRRPFQAQCGHRYCSFCLASILSSGPQNCAACVHEGIYEEGISILESSSAFPDNAARREVESLPAVCPSDGCTWKGTLKEYESCHEGRCPLMLTECPACKGLVRLGEKERHLEHECPERSLSCRHCRAPCCGADVKAHHEVCPKFPLTCDGCGKKKIPREKFQDHVKTCGKCRVPCRFHAI
notes: Includes the Ring finger and zinc finger motifs; served as bait in two hybrid tests (fusion partner not spelled out for this construct); also called TRAF2 1-221
B10: construct of the C-terminal part of the TRAF2 molecule, amino acids 222 to 501 (two-hybrid bait) (other)
chain: GCLETVEGEKQQEHEVQWLREHLAMLLSSVLEAKPLLGDQSHAGSELLQRCESLEKKTATFENIVCVLNREVERVAMTAEACSRQHRLDQDKIEALSSKVQQLERSIGLKDLAMADLEQKVLEMEASTYDGVFIWKISDFARKRQEAVAGRIPAIFSPAFYTSRYGYKMCLRIYLNGDGTGRGTHLSLFFVVMKGPNDALLRWPFNQKVTLMLLDQNNREHVIDAFRPDVTSSSFQRPVNDMNIASGCPLFCPVSKMEAKNSYVRDDAIFIKAIVDLTGL
notes: Covers the TRAF-domain and additional 42 amino acids; served as bait in two hybrid tests (fusion partner not spelled out for this construct); also called TRAF2 222-501; C-terminal construct comprising the TRAF domain
B11: TRAF2 cDNA clones picked from the human B-cell library (two-hybrid prey, GAL4 activation domain fusion) (other, not shown: large carriers)
chain: MAAASVTPPGSLELLQPGFSKTLLGTKLEAKYLCSACRNVLRRPFQAQCGHRYCSFCLASILSSGPQNCAACVHEGIYEEGISILESSSAFPDNAARREVESLPAVCPSDGCTWKGTLKEYESCHEGRCPLMLTECPACKGLVRLGEKERHLEHECPERSLSCRHCRAPCCGADVKAHHEVCPKFPLTCDGCGKKKIPREKFQDHVKTCGKCRVPCRFHAIGCLETVEGEKQQEHEVQWLREHLAMLLSSVLEAKPLLGDQSHAGSELLQRCESLEKKTATFENIVCVLNREVERVAMTAEACSRQHRLDQDKIEALSSKVQQLERSIGLKDLAMADLEQKVLEMEASTYDGVFIWKISDFARKRQEAVAGRIPAIFSPAFYTSRYGYKMCLRIYLNGDGTGRGTHLSLFFVVMKGPNDALLRWPFNQKVTLMLLDQNNREHVIDAFRPDVTSSSFQRPVNDMNIASGCPLFCPVSKMEAKNSYVRDDAIFIKAIVDLTGL
B12: protein encoded by new clone number 10, partial NIK (NIK 624-947) (two-hybrid prey, GAL4 activation domain fusion) (enzyme, not shown: large carriers)
chain: PLTAQAIQEGLRKEPIHRVSAAELGGKVNRALQQVGGLKSPWRGEYKEPRHPPPNQANYHQTLHAQPRELSPRAPGPRPAEETTGRAPKLQPPLPPEPPEPNKSPPLTLSKEESGMWEPLPLSSLEPAPARNPSSPERKATVPEQELQQLEIELFLNSLSQPFSLEEQEQILSCLSIDSLSLSDDSEKNPSKASQSSRDTLSSGVHSWSSQAEARSSSWNMVLARGRPTDTPSYFNGVKVQIQSLNGEHLHIREFHRVKVGDIATGISSQIPAAAFSLVTKDGQPVRYDMEVPDSGIDLQCTLAPDGSFAWSWRVKHGQLENRP
notes: also called clone 10; NMPI
B13: Lymphotoxin beta receptor cDNA clones picked from the human B-cell library (two-hybrid prey, GAL4 activation domain fusion) (receptor, UniProt P36941 249-435, looked up, not shown: large carriers)
chain: KSHPSLCRKLGSLLKRRPQGEGPNPVAGSWEPPKAHPYFPDLVQPLLPISGDVSPVSTGLPAAPVLEAGVPQQQSPLDLTREPQLEPGEQSQVAHGTNGIHVTGGSMTITGNIYIYNGPVLGGPPGPGDLPATPEPPYPIPEEGDPGPPGLSTPHQEDGKAWHLAETEHCGATPSNRGPRNQFITHD

One test concerns the target full-length NIK (NF-kB inducing kinase) (human, UniProt Q99558 1-947). As to the kind of experiment: yeast two-hybrid (results not shown).
For the molecule B1, the binding result was “no binding”.

Take B2: the binding result is recorded as “no binding”.

With B3, the binding result was “no binding”.

Regarding B4, the binding result is on record as “no binding”.

On to B5, for which the binding result is “no binding”.

As for B6, the binding result is listed as “no binding”.

Regarding B7, the binding result was “no binding”.

In the case of B8, the binding result is recorded as “no binding”.

For a further test, the target named is B12. As to the kind of experiment: yeast two-hybrid specificity test with irrelevant baits.
On to B1, for which the binding result was “no binding”.

For the molecule B2, the binding result is listed as “no binding”.

As for B7, the binding result is listed as “no binding”.

The target of the next test is B12. Nature of the test: yeast two-hybrid, TRAF2 1-221 as bait. The text has this:
(§1) In order to narrow down the region on TRAF2 molecule which interact with clones 9, 10 and 15, two additional constructs were made. One construct comprised of the N-terminal part of the TRAF2 molecule, amino-acids 1 to 221, that included the Ring finger and the zinc finger motifs. The second construct included only the C-terminal part of the molecule, amino acids 222 to 501, covering the "TRAF-domain" and additional 42 amino acids. These two constructs were served as baits in two hybrid tests.
In the case of B9, the binding result is listed as “no binding”.

The target of the next test is B12. Nature of the test: yeast two-hybrid, TRAF2 222-501 as bait.
Excerpt: as §1
In the case of B10, the binding result is “binds”.

The target of another test is T1, human TRAF2 in pGBT9 vector in conjunction with GAL4 DNA binding domain (two-hybrid bait) (human, UniProt P04386 1-147 (Saccharomyces cerevisiae entry)).
T1 construct: Cloned by PCR from the first methionine to the stop codon; a short linker from the BamHI primer between GAL4 domain and TRAF2 is not spelled out; also called hTRAF2; full length TRAF2 molecule
Nature of the test: yeast two-hybrid with TRAF2 bait, lacZ (beta-galactosidase) colour development time. On the procedure:
Positive clones picked up in the two hybrid screen were subjected to lacZ color development test in SFY526 yeast cells, following Clontech Laboratories' manual (for details see above mentioned publications and patent applications). In brief, transformants were allowed to grow at 30° C. for 2-4 days until reaching about 2 mm in diameter, then were transferred onto Whatman filters. The filters went through a freeze/thaw treatment in order to permeabilize the cells, then soaked in a buffer (16.1 mg/ml Na_2HPO_4.7H_2O; 5.5 mg/ml NaH_2PO_4.H_2O; 0.75 mg/ml KCl; 0.75 mg/ml MgSO_4.7H_2O, pH=7) containing 0.33 mg/ml X-gal and 0.35 mM β-mercaptoethanol. Colonies were monitored for development of blue color which is an indication for induction of β-galactosidase.
The screen yielded approximately 2000 clones which were able to grow on Trp-, Leu-, His-3AT plates. DNA prepared from 165 randomly selected positive clones served for transient co-transfection of SFY526 yeast strain together with TRAF2 cloned into pGBT9 vector. Assay for β-galactosidase activity was performed on the transformed SFY526 yeast colonies as described in Materials and Methods (v). The blue color that developed was an indication for yeast colonies that contain cDNA encoding a protein or polypeptide that binds to TRAF2.
For the molecule B11, the “Color test” value was determined as 10 min.

Turning to B12, the “Color test” value was determined as 15 min.

B13: the “Color test” value was 10 min.
